Publication PMC6572841, “Structural basis for the inhibition of translation through eIF2α phosphorylation” (Nature Communications, 2019)

B1: eIF2α phosphorylated at Ser51 (natural protein, Saccharomyces cerevisiae, UniProt P20459 1-304, looked up)
chain: MSTSHCRFYENKYPEIDDIVMVNVQQIAEMGAYVKLLEYDNIEGMILLSELSRRRIRSIQKLIRVGKNDVAVVLRVDKEKGYIDLSKRRVSSEDIIKCEEKYQKSKTVHSILRYCAEKFQIPLEELYKTIAWPLSRKFGHAYEAFKLSIIDETVWEGIEPPSKDVLDELKNYISKRLTPQAVKIRADVEVSCFSYEGIDAIKDALKSAEDMSTEQMQVKVKLVAAPLYVLTTQALDKQKGIEQLESAIEKITEVITKYGGVCNITMPPKAVTATEDAELQALLESKELDNRSDSEDDEDESDDE
modifications: phosphoserine at 51 (52 sequence numbering); measured by mass spectrometry to be 89.4%
notes: eIF2α, S. cerevisiae; Subunit of m1 as it stood in the eIF2B-eIF2(αP) complex; also called eIF2(αP) α subunit; source: purified from S. cerevisiae strain GP3511 as part of eIF2; phosphorylated in vitro by human PKR (Invitrogen)
B2: eIF2β (natural protein, Saccharomyces cerevisiae, UniProt P09064 1-285, looked up)
chain: MSSDLAAELGFDPALKKKKKTKKVIPDDFDAAVNGKENGSGDDLFAGLKKKKKKSKSVSADAEAEKEPTDDIAEALGELSLKKKKKKTKDSSVDAFEKELAKAGLDNVDAESKEGTPSANSSIQQEVGLPYSELLSRFFNILRTNNPELAGDRSGPKFRIPPPVCLRDGKKTIFSNIQDIAEKLHRSPEHLIQYLFAELGTSGSVDGQKRLVIKGKFQSKQMENVLRRYILEYVTCKTCKSINTELKREQSNRLFFMVCKSCGSTRSVSSIKTGFQATVGKRRRM
notes: eIF2β, S. cerevisiae; Subunit of m1 as it stood in the eIF2B-eIF2(αP) complex; also called eIF2 β subunit; source: purified from S. cerevisiae strain GP3511 as part of eIF2
B3: eIF2Bα (natural protein, Saccharomyces cerevisiae)
chain: MSEFNITETYLRFLEEDTEMTMPIAAIEALVTLLRIKTPETAAEMINTIKSSTEELIKSIPNSVSLRAGCDIFMRFVLRNLHLYGDWENCKQHLIENGQLFVSRAKKSRNKIAEIGVDFIADDDIILVHGYSRAVFSLLNHAANKFIRFRCVVTESRPSKQGNQLYTLLEQKGIPVTLIVDSAVGAVIDKVDKVFVGAEGVAESGGIINLVGTYSVGVLAHNARKPFYVVTESHKFVRMFPLSSDDLPMAGPPLDFTRRTDDLEDALRGPTIDYTAQEYITALITDLGVLTPSAVSEELIKMWYD
notes: eIF2Bα, S. cerevisiae; Subunit of m2 as it stood in the eIF2B-eIF2(αP) complex; also called eIF2B α subunit; source: over-expressed in S. cerevisiae strain GP4109, purified as part of Flag-tagged eIF2B
B4: eIF2γ (natural protein, Saccharomyces cerevisiae, UniProt P32481 1-527, looked up)
chain: MSDLQDQEPSIIINGNLEPVGEPDIVEETEVVAQETQETQDADKPKKKVAFTGLEEDGETEEEKRKREFEEGGGLPEQPLNPDFSKLNPLSAEIINRQATINIGTIGHVAHGKSTVVRAISGVQTVRFKDELERNITIKLGYANAKIYKCQEPTCPEPDCYRSFKSDKEISPKCQRPGCPGRYKLVRHVSFVDCPGHDILMSTMLSGAAVMDAALLLIAGNESCPQPQTSEHLAAIEIMKLKHVIILQNKVDLMREESALEHQKSILKFIRGTIADGAPIVPISAQLKYNIDAVNEFIVKTIPVPPRDFMISPRLIVIRSFDVNKPGAEIEDLKGGVAGGSILNGVFKLGDEIEIRPGIVTKDDKGKIQCKPIFSNIVSLFAEQNDLKFAVPGGLIGVGTKVDPTLCRADRLVGQVVGAKGHLPNIYTDIEINYFLLRRLLGVKTDGQKQAKVRKLEPNEVLMVNIGSTATGARVVAVKADMARLQLTSPACTEINEKIALSRRIEKHWRLIGWATIKKGTTLEPIA
notes: eIF2γ, S. cerevisiae; Subunit of m1 as it stood in the eIF2B-eIF2(αP) complex; also called eIF2 γ subunit; source: purified from S. cerevisiae strain GP3511 as part of eIF2
B5: eIF2Bγ (natural protein, Saccharomyces cerevisiae)
chain: MSIQAFVFCGKGSNLAPFTQPDFPFQTQNKDSTAATSGDKLNELVNSALDSTVINEFMQHSTRLPKALLPIGNRPMIEYVLDWCDQADFKEISVVAPVDEIELIESGLTSFLSLRKQQFELIYKALSNSNHSHHLQDPKKINFIPSKANSTGESLQKELLPRINGDFVILPCDFVTDIPPQVLVDQFRNRDDNNLAMTIYYKNSLDSSIDKKQQQKQKQQQFFTVYSENEDSERQPILLDVYSQRDVTKTKYLQIRSHLLWNYPNLTVSTKLLNSFIYFCSFELCQLLKLGPQSMSRQASFKDPFTGNQQQQNPPTTDDDEDRNHDDDDDYKPSATSIQPTYFKKKNDLILDPINCNKSLSKVFRDLSRRSWQHSKPREPIGIFILPNETLFIRANNLNAYMDANRFVLKIKSQTMFTKNIQIQSAAIGADAIVDPKCQISAHSNVKMSVLGTQANIGSRCRVAGSLLFPGVHLGDEVILENCIIGPMAKIGSKCKLSNCYIEGHYVVEPKNNFKGETLANVYLDEDEEDELIYDDSVIAGESEIAEETDSDDRSDEDSDDSEYTDEYEYEDDGLFER
notes: eIF2Bγ, S. cerevisiae; Subunit of m2 as it stood in the eIF2B-eIF2(αP) complex; also called eIF2B γ subunit; source: over-expressed in S. cerevisiae strain GP4109, purified as part of Flag-tagged eIF2B

Key:
Assay in all cases: cryo-EM structure; eIF2(αP) with 2 mM GDP added to Flag-tagged eIF2B immobilised on Anti-Flag M2 gel, eluted with 3XFlag-peptide; 20 mM Hepes (pH 7.5), 100 mM KCl, 5 mM MgCl2, 5 mM β-ME; diluted to ~200 nM with 0.1% glutaraldehyde; six maps, 4.2 to 10.4 Å
Settings in all cases: both partners purified
eIF2Bδ = biological target: T1, eIF2Bδ (Saccharomyces cerevisiae, UniProt P12754 1-651)
T1 construct: eIF2Bδ, S. cerevisiae; Subunit of m2 as it stood in the eIF2B-eIF2(αP) complex; also called eIF2B δ subunit; source: over-expressed in S. cerevisiae strain GP4109, purified as part of Flag-tagged eIF2B
T1 sequence: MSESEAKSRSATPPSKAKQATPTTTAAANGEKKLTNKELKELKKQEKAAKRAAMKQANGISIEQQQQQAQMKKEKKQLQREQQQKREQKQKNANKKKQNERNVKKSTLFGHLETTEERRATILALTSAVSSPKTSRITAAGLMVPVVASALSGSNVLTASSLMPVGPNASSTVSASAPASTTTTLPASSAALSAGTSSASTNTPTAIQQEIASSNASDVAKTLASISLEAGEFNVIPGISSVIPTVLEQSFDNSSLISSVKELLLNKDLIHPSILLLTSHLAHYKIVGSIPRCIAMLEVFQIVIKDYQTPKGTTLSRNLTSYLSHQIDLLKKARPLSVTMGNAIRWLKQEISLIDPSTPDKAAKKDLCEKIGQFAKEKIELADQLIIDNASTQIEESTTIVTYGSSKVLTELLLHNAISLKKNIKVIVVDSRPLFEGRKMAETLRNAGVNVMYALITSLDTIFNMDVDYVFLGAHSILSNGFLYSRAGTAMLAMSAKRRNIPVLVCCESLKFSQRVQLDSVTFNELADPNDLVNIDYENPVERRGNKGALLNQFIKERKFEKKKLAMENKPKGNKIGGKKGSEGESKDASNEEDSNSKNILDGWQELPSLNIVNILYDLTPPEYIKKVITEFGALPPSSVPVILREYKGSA

eIF2Bα = biological target: B3
eIF2Bβ = biological target: T2, eIF2Bβ (Saccharomyces cerevisiae, UniProt P32502 1-381)
T2 construct: eIF2Bβ, S. cerevisiae; Subunit of m2 as it stood in the eIF2B-eIF2(αP) complex; also called eIF2B β subunit; source: over-expressed in S. cerevisiae strain GP4109, purified as part of Flag-tagged eIF2B
T2 sequence: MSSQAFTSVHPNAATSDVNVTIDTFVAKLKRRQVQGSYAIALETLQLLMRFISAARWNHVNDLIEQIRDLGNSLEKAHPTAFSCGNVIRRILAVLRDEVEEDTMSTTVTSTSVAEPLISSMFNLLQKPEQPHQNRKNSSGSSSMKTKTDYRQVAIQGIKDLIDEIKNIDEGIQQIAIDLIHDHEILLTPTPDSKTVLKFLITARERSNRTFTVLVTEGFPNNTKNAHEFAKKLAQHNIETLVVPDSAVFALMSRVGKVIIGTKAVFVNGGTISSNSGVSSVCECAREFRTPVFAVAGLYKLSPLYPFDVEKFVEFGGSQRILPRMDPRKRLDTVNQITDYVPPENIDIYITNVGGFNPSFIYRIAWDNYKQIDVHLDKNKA

eIF2Bε = biological target: T3, eIF2Bε (Saccharomyces cerevisiae, UniProt P32501 1-712)
T3 construct: eIF2Bε, S. cerevisiae; Subunit of m2 as it stood in the eIF2B-eIF2(αP) complex; the ε-cat HEAT domain was not included in any model; also called eIF2B ε subunit; source: over-expressed in S. cerevisiae strain GP4109, purified as part of Flag-tagged eIF2B
T3 sequence: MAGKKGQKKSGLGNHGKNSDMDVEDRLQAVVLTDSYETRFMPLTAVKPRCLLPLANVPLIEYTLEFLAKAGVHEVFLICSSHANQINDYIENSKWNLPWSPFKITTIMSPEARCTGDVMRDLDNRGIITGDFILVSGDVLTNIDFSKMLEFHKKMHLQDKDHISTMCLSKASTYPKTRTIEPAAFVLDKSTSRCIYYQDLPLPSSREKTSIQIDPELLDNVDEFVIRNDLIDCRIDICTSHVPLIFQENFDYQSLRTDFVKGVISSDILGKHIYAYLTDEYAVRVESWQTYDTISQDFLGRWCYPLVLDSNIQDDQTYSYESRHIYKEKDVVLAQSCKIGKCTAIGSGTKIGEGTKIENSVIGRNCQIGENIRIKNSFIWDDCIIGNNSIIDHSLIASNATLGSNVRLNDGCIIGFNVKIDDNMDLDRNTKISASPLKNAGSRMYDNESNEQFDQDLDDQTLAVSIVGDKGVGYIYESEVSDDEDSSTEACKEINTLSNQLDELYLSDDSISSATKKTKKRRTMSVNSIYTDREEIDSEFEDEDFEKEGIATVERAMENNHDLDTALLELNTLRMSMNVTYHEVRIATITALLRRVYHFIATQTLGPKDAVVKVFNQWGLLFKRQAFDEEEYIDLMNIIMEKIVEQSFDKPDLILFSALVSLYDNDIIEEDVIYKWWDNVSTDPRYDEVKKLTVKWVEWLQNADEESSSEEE

eIF2Bγ = biological target: B5

B1
binding result (eIF2Bδ): binds
binding result (eIF2Bα): binds
binding result (eIF2Bβ): binds

B2
binding result (eIF2Bε): binds
binding result (eIF2Bγ): binds

B3
binding result (eIF2Bβ): binds

B4
binding result (eIF2Bγ): binds

B5
binding result (eIF2Bε): binds
